Laboratory results: patent US20210002644, “ANTI-CHYMASE APTAMER AND USE FOR SAME” (RIBOMIC INC., published 2021)

Experiments:
[1] = target: T1, chymase (recombinant, SIGMA) (UniProt P23946); test: inhibition; conditions: 2'-F pyrimidines (U, C); negative control pool, no inhibition
T1 sequence: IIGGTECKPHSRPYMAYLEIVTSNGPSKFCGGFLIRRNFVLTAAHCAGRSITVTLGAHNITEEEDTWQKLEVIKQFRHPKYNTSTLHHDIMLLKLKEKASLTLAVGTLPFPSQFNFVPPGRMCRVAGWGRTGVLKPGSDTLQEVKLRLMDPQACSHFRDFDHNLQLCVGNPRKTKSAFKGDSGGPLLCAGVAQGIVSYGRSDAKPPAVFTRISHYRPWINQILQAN

[2] = target: T2, chymase (native, human skin mast cell) (Homo sapiens, UniProt P23946 P23946:22-247); test: inhibition; angiotensin I substrate, 37 C; conditions: tags: Calbiochem Human Skin
T2 sequence: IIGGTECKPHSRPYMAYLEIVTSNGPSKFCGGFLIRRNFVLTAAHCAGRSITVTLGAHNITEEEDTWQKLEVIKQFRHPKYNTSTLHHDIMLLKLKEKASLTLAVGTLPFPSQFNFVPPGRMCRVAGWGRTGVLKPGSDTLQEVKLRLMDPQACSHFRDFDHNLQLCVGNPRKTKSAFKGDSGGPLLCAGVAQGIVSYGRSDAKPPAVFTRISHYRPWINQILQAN
Experimental: Whether the nucleic acids shown by SEQ ID NO: 9 and 10 inhibit the enzyme activity of chymase was determined by the following method. Angiotensin I is converted by chymase to angiotensin II, during which a peptide fragment His-Leu is released. Since the peptide His-Leu is fluorescently derivatized by o-phthalaldehyde, its fluorescence intensity can be quantitatively measured.
The total volume of solution for an enzyme reaction in the assay was set to 50 μL, and the reaction was performed in solution C buffer. At first, native (manufactured by Calbiochem) was diluted with solution C to give 5 μL thereof. Here, the native is chymase purified from human skin mast cell. […] The whole mixture was centrifuged at 4° C., 14000 rpm for 10 min, and the supernatant (30 μL) was used for the next fluorescence induction reaction.
The above-mentioned supernatant (30 μL) was added to a 96 well plate (black, manufactured by Costar), a solution (15 μL) of 2% o-phthalaldehyde (manufactured by SIGMA) in methanol and 0.3M NaOH solution (170 μL) were added to each well, and the mixture was incubated at room temperature for 10 min. […] The plate was set on a microplate reader SpectraMax190 (manufactured by Molecular device) and the fluorescence intensity was measured at an excitation wavelength of 355 nm and a fluorescence wavelength of 460 nm.

[3] = target: T3, chymase (recombinant, SIGMA) (UniProt P23946 P23946:22-247); test: inhibition; Suc-AAPF-MCA substrate, 0.005 ug chymase, single measurement; conditions: tags: SIGMA recombinant
T3 sequence: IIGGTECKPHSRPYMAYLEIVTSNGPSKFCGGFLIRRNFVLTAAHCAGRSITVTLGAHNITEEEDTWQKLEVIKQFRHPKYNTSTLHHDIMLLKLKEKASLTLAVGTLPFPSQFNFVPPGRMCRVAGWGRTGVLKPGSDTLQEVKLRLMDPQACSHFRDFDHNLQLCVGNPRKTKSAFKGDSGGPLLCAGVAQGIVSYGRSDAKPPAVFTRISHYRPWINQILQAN
Experimental: (§1) The assay was performed using a 96-well plate (F16 Black Maxisorp Fluoronunc, manufactured by Nunc), with a reaction mixture volume of 100 μL, in solution C as a buffer solution. Here, the solution C is a mixed solution of 145 mM sodium chloride, 5.4 mM potassium chloride, 1.8 mM calcium chloride, 0.8 mM magnesium chloride, 20 mM Tris (pH 7.6), and 0.05% Tween20. First, nucleic acid was serially diluted in solution C to obtain 50 μL solutions. After 10 μL of the 1 mM substrate prepared in solution C was added thereto, the plate was set to the microplate reader SpectraMax190 (manufactured by Molecular Devices Corporation), and incubated at 37° C. for 5 minutes. Separately, 0.05 μg of chymase (recombinant, manufactured by SIGMA) was diluted in solution C to obtain a 40 μL chymase solution, and incubated at 37° C. for 5 minutes. The chymase solution was added to the mixture of the nucleic acid and substrate to initiate an enzyme reaction. The final chymase concentration in the reaction mixture was 16.7 nM, the final substrate concentration being 100 μM. The plate containing the reaction mixture was set to the microplate reader SpectraMax190 (manufactured by Molecular Devices Corporation), and examined for time-dependent changes in the fluorescence intensity at 37° C. for 5 minutes (or 30 minutes) (excitation wavelength 380 nm, detection wavelength 460 nm). A linear approximation of the increase in the fluorescence of the AMC released from the substrate by chymase activity was generated, and its slope was taken as the initial velocity […]. For control, samples were treated and analyzed in the same manner in two cases: use of a 30N (a nucleotide of 30 consecutive bases represented by N; N is A, G, C or T) nucleic acid pool (negative control), and use of chymostatin, a known chymotrypsin-like serine protease inhibitor (positive control). Taking the initial reaction velocity without the nucleic acid and inhibitor (V₀) as a 100% enzyme activity, the inhibitory rate of each test substance was calculated using the following equation: […]
In the evaluation of SEQ ID NO: 21-25, a method similar to the evaluation method of inhibitory activity against chymase shown in Example 1 by using MCA as a substrate except that the amount chymase was changed from 0.05 μg to 0.005 μg was used for measurement.

[4] = target: T3, chymase (recombinant, SIGMA); test: inhibition; Suc-AAPF-MCA substrate, 37 C; conditions: tags: SIGMA recombinant
Experimental: as §1, with “By detecting the fluorescence of this AMC, the enzyme activity of chymase can be determined. The assay” for “The assay”

[5] = target: T3, chymase (recombinant, SIGMA); test: inhibition; Suc-AAPF-MCA substrate, 37 C, 1.8 mM Ca, 0.8 mM Mg, pH 7.6; conditions: tags: SIGMA recombinant
Experimental: By detecting the fluorescence of this AMC, the enzyme activity of chymase can be determined. The assay was performed using a 96-well plate (F16 Black Maxisorp Fluoronunc, manufactured by Nunc), with a reaction mixture volume of 100 μL, in solution C as a buffer solution. Here, the solution C is a mixed solution of 145 mM sodium chloride, 5.4 mM potassium chloride, 1.8 mM calcium chloride, 0.8 mM magnesium chloride, 20 mM Tris (pH 7.6), and 0.05% Tween20. First, nucleic acid was serially diluted in solution C to obtain 50 μL solutions. After 10 μL of the 1 mM substrate prepared in solution C was added thereto, the plate was set to the microplate reader SpectraMax190 (manufactured by Molecular Devices Corporation), and incubated at 37° C. for 5 minutes. […] The plate containing the reaction mixture was set to the microplate reader SpectraMax190 (manufactured by Molecular Devices Corporation), and examined for time-dependent changes in the fluorescence intensity at 37° C. for 5 minutes (or 30 minutes) (excitation wavelength 380 nm, detection wavelength 460 nm). A linear approximation of the increase in the fluorescence of the AMC released from the substrate by chymase activity was generated, and its slope was taken as the initial velocity […]. […]

[6] = target: T2, chymase (native, human skin mast cell); test: inhibition; angiotensin I substrate; table prints length 32 though SEQ 33 is 31 nt; conditions: tags: Calbiochem Human Skin
Experimental: (§2) The total volume of solution for an enzyme reaction in the assay was set to 50 μL, and the reaction was performed in solution C buffer. At first, native (manufactured by Calbiochem) was diluted with solution C to give 5 μL thereof. Here, the native is chymase purified from human skin mast cell. The nucleic acid was serially diluted with solution C at a concentration of 0.0027-2 μM to give 25 μL thereof. The chymase solution (5 μL) and the nucleic acid solution (25 μL) were mixed, and the mixture was incubated at 37° C. for 5 min. On the other hand, […] angiotensin I (manufactured by PEPTIDE […], INC.) was prepared in solution C to give 20 μL thereof, which was incubated at 37° C. for 5 min. The angiotensin I solution was added to a mixture of chymase and nucleic acid to start an enzyme reaction. The final chymase concentration of the reaction solution was 0.5 nM, and the final substrate concentration was 50 μM. After reaction at 37° C. for 90 min, ice-cooled 30% trichloroacetic acid solution (25 μL) was added to quench the reaction. The whole mixture was centrifuged at 4° C., 14000 rpm for 10 min, and the supernatant (30 μL) was used for the next fluorescence induction reaction.

[7] = target: T2, chymase (native, human skin mast cell); test: inhibition; angiotensin I substrate; second G of GGGG 2'-OMe; conditions: tags: Calbiochem Human Skin
Experimental: as §2, with “The angiotensin I solution was added to a mixture of chymase and nucleic acid to start an enzyme reaction. The final chymase concentration of the reaction solution was 0.5 nM, and the final substrate concentration was 50 μM. After reaction at 37° C. for 90 min, ice-cooled 30% trichloroacetic acid solution (25 μL) was added to quench the reaction.” left out
(§3) The above-mentioned supernatant (30 μL) was added to a 96 well plate (black, manufactured by Costar), a solution (15 μL) of 2% o-phthalaldehyde (manufactured by SIGMA) in methanol and 0.3M NaOH solution (170 μL) were added to each well, and the mixture was incubated at room temperature for 10 min. […] The plate was set on a microplate reader SpectraMax190 (manufactured by Molecular device) and the fluorescence intensity was measured at an excitation wavelength of 355 nm and a fluorescence wavelength of 460 nm. […]

[8] = target: T2, chymase (native, human skin mast cell); test: inhibition; angiotensin I substrate, 37 C; conditions: tags: Calbiochem Human Skin; remark: listed apart in the source
Experimental: as §2, with “The angiotensin I solution was added to a mixture of chymase and nucleic acid to start an enzyme reaction. The final chymase concentration of the reaction solution was 0.5 nM, and the final substrate concentration was 50 μM. After reaction at 37° C. for 90 min, ice-cooled 30% trichloroacetic acid solution (25 μL) was added to quench the reaction.” left out
as §3

## UCACACUAGCACGCAUAGGNNNNNNNNNNNNNNNNNNNNNNNNNNNNNNCAUCUGACCUCUCUCCUGCUCCC [30N nucleic acid pool]
[1]
  IC50: > 500 nM

B1: SEQ ID NO: 10 (ssRNA)
RNA: GGGAACGAAGCGACAGACCGAAUCAGAAGUUCAACAUGGACAUAACAUCGAUGGGGUGUCAAGUACUGACGACAGA
modifications: 2'-F pyrimidines (U, C); purines 2'-OH
[2]
  IC50: 0.43 nM

B2: SEQ ID NO: 25 (ssRNA)
RNA: GGCAGAUGAUCGGACAUAACAAGAUAGAGUUAAAUGGGGUGUCAA
modifications: 2'-F pyrimidines (inferred)
[3]
  IC50: 5.8 nM

B3: SEQ ID NO: 23 (ssRNA)
RNA: GGCAGAUGAUCGGACAUAACAGUAGAUAGAGUUAAAACUGGGGUGUCAA
modifications: 2'-F pyrimidines (inferred)
[3]
  IC50: 7.8 nM

B4: SEQ ID NO: 5 (ssRNA)
RNA: GGGAGCAGGAGAGAGGUCAGAUGAUGACCGAUUAUAGGUAACCACUUAGGGGGCCUAUGCGUGCUAGUGUGA
modifications: 2'-F pyrimidines (U, C); purines 2'-OH
[4]
  IC50: 7 nM

B5: SEQ ID NO: 8 (ssRNA)
RNA: GGGAGCAGGAGAGAGGUCAGAUGAUUGACGACUAUAGGUAACCUUUACGGGGGCCUAUGCGUGCUAGUGUGA
modifications: 2'-F pyrimidines (U, C); purines 2'-OH
[4]
  IC50: 35 nM

B6: SEQ ID NO: 21 (ssRNA)
RNA: GGCAGAUGAUCGGACAUAACAGGUUAGAUAGAGUUAAAAACCUGGGGUGUCAA
modifications: 2'-F pyrimidines (inferred)
[3]
  IC50: 5.7 nM

B7: SEQ ID NO: 1 (ssRNA)
RNA: GGGAGCAGGAGAGAGGUCAGAUGAGCAUGCUUUUUGGUAACCGAUAAUGGGGGCCUAUGCGUGCUAGUGUGA
modifications: 2'-F pyrimidines (U, C); purines 2'-OH
[5]
  IC50: 41 nM

B8: SEQ ID NO: 6 (ssRNA)
RNA: GGGAGCAGGAGAGAGGUCAGAUGUCAUGACUUAUAGGUAACCGAUAAUGGGGGCCUAUGCGUGCUAGUGUGA
modifications: 2'-F pyrimidines (U, C); purines 2'-OH
[4]
  IC50: 5.5 nM

B9: SEQ ID NO: 22 (ssRNA)
RNA: GGCAGAUGAUCGGACAUAACAGUUAGAUAGAGUUAAAAACUGGGGUGUCAA
modifications: 2'-F pyrimidines (inferred)
[3]
  IC50: 5 nM

B10: SEQ ID NO: 33 (ssRNA)
RNA: AUGAUCGGACAUAACUAAUUAGGGGUGUCAA
modifications: 2'-F pyrimidines (U, C); purines 2'-OH
[6]
  IC50: 0.21 nM

B11: SEQ ID NO: 17(1) (ssRNA)
RNA: GAUGAUCGGACAUAACAUUGUUGGGGUGUCAA
modifications: GAU(F)GAU(F)C(F)GGAC(F)AU(F)AAC(F)AU(F)U(F)GU(F)U(F)G(M)G(M)GGU(F)GU(F)C(F)AA (F=2'-F, M=2'-OMe)
[7]
  IC50: 44.4 nM

B12: SEQ ID NO: 17(3) (ssRNA)
RNA: GAUGAUCGGACAUAACAUUGUUGGGGUGUCAA
modifications: idT-G(M)A(M)U(F)G(M)A(M)U(F)C(F)G(M)G(M)A(M)C(F)A(M)U(F)AAC(F)AU(F)U(F)G(M)U(F)U(F)GG(M)G(M)G(M)U(F)G(M)U(F)C(F)A(M)A(M)-idT (F=2'-F, M=2'-OMe)
[7]
  IC50: 5.66 nM

B13: SEQ ID NO: 4 (ssRNA)
RNA: GGGAGCAGGAGAGAGGUCAGAUGUAACUCUAUUGAGGGGCAUCAGCACAGUAGCCUAUGCGUGCUAGUGUGA
modifications: 2'-F pyrimidines (U, C); purines 2'-OH
[4]
  IC50: 10.8 nM

B14: SEQ ID NO: 7 (ssRNA)
RNA: GGGAGCAGGAGAGAGGUCAGAUGUUUGGUAGUAACUGGAAUAGGGGCUACAGGCCUAUGCGUGCUAGUGUGA
modifications: 2'-F pyrimidines (U, C); purines 2'-OH
[4]
  IC50: 52 nM

B15: SEQ ID NO: 3 (ssRNA)
RNA: GGGAGCAGGAGAGAGGUCAGAUGAUAACCAGUUGGGGGGUCAAUUACAUGGGACCUAUGCGUGCUAGUGUGA
modifications: 2'-F pyrimidines (U, C); purines 2'-OH
[4]
  IC50: 26 nM

B16: SEQ ID NO: 2 (ssRNA)
RNA: GGGAGCAGGAGAGAGGUCAGAUGAUCGGACAUAACAUUGUUGGGGUGUCAAGGCCUAUGCGUGCUAGUGUGA
modifications: 2'-F pyrimidines (U, C); purines 2'-OH
[8]
  IC50: 10 nM
[4]
  IC50: 31 nM

B17: SEQ ID NO: 24 (ssRNA)
RNA: GGCAGAUGAUCGGACAUAACAUAGAUAGAGUUAAAAUGGGGUGUCAA
modifications: 2'-F pyrimidines (inferred)
[3]
  IC50: 3.7 nM
